Source: patent US20240254223A1 (NOVIMMUNE, published 2024)

T1: high affinity trimeric IL-2R (IL-2Rα, IL-2Rβ and IL-2Rγ) on HEK-Blue IL-2 cells (UniProt P01589 22-272; P14784 27-551; P31785 23-369)
T1 sequence (looked up) 1: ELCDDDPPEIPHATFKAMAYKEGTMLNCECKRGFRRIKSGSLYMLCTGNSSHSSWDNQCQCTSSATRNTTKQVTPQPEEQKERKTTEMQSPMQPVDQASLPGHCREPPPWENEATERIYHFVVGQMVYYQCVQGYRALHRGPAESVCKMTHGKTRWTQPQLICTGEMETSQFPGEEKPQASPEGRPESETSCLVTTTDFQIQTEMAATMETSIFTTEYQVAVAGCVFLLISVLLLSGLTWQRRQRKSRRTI
T1 sequence (looked up) 2: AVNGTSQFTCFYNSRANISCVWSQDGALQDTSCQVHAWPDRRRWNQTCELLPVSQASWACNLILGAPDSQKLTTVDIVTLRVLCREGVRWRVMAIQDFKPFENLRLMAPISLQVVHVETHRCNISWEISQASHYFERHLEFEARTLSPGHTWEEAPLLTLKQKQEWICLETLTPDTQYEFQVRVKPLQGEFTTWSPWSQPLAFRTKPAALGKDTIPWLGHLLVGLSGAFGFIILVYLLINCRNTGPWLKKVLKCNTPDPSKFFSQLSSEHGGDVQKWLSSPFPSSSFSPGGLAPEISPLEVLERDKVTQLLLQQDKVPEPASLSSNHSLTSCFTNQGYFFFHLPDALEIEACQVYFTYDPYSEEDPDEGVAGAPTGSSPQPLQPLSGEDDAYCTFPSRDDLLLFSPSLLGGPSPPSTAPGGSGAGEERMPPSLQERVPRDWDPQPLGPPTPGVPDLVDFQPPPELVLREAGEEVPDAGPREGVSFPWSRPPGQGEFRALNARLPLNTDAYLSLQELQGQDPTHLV
T1 sequence (looked up) 3: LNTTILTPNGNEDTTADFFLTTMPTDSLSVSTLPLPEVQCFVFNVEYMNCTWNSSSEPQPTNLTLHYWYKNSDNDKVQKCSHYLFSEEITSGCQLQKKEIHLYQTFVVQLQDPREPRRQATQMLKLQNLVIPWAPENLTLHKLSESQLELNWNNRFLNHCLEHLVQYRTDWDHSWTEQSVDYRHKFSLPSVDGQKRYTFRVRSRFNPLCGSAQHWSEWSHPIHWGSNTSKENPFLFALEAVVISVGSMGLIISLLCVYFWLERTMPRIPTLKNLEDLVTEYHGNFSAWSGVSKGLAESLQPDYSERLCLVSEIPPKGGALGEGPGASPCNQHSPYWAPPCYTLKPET

T2: low-moderate affinity dimeric IL-2R (IL-2Rβ and IL-2Rγ) on HEK-Blue CD122/CD132 cells (UniProt P14784 27-551; P31785 23-369, limits assumed)
T2 sequence (looked up) 1: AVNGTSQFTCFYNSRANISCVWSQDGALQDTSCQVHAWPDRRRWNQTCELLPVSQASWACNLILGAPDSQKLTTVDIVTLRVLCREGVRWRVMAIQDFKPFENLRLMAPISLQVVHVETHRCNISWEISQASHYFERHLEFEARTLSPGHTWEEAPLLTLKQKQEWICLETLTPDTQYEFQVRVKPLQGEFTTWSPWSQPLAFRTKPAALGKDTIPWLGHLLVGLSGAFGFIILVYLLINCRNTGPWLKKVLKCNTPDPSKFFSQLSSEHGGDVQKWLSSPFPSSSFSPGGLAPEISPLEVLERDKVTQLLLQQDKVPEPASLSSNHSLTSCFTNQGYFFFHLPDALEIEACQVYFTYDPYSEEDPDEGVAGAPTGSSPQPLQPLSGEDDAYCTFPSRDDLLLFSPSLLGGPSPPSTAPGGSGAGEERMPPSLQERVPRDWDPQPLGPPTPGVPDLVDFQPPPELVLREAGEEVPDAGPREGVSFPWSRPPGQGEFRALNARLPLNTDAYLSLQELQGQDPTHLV
T2 sequence (looked up) 2: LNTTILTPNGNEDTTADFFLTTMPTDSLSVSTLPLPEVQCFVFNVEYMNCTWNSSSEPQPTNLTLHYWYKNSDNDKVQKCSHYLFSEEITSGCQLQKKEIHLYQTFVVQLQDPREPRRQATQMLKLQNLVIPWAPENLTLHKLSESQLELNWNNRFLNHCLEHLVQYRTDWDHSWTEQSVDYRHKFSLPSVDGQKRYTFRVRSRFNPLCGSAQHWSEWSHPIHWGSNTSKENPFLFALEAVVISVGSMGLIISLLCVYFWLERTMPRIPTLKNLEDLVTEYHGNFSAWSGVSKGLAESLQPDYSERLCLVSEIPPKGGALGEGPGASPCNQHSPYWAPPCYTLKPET


What was measured:
[1] = biological target: T1, high affinity trimeric IL-2R (IL-2Rα, …); assay: cell-based or functional assay
[2] = biological target: T3, CD47 at the surface of Peak cells (human, UniProt Q08722 19-323); assay: flow cytometry, Peak cells, after MMP-9 treatment
T3 construct: whole, on cells; also called cell surface CD47
Procedure: Binding activity of antibody-cytokine/receptor fusions before and after cleavage was also evaluated by flow cytometry. Peak cells derived from HEK 293 which are human cells expressing CD47 were used to evaluate masking efficacy and binding recovery to CD47 by flow cytometry. Peak cells were diluted in cold FACS buffer (PBS, 2% BSA) to 1.2×10⁶ cells/mL. 3×10⁵ cells/well were added in a 96 well V-bottom plate. The plate was then centrifugated for 5 min at 1300 rpm, 4° C. Supernatants were removed and cells were washed twice using FACS buffer. A serial dilution of antibody-cytokine/receptor fusions previously digested with MMP-9 or not digested as described above was prepared in FACS buffer. An irrelevant antibody was included. Then, 150 μL of each diluted antibody were added in corresponding well and incubated for 30 min at 4° C. Cells were washed twice with FACS buffer and 100 μL of a mouse anti human Fc-PE conjugated secondary antibody were added and the plate was incubated for 20 min at 4° C. Cells were then washed twice with FACS buffer. Finally, 150 μL of SYTOX blue dead cell stain (ThermoFisher) diluted to 1/5000 in FACS buffer were added before detection by flow cytometry with Cytoflex (Beckman Coulter). Acquisition was performed with 10000 events for each well. Data were analyzed by FlowJo software.

[3] = biological target: T2, low-moderate affinity dimeric IL-2R …; assay: cell-based or functional assay
[4] = biological target: T4, His-tagged human CD47 (human, UniProt Q08722 19-139, limits assumed); assay: BLI, His-CD47 on HIS1K sensor, after MMP-9 treatment
T4 construct: loaded on HIS1K biosensors at 2.5 µg/mL; also called target antigen; not shown: His tag
Procedure: The capacity of the masking domains to inhibit binding activity of the antibody was evaluated by Bio-Layer Interferometry (BLI). […] Binding experiments were performed to evaluate the masking efficiency and the binding recovery after cleavage of the masking domains. BLI was performed on an Octet RED96 system (Sartorius). His-tagged human CD47 was diluted at 2.5 μg/mL in Kinetic Buffer (KB) (Sartorius) and loaded on HIS1K biosensors (anti-His tag antibody biosensors, Sartorius) for 300 seconds. Loaded biosensors were dipped into antibodies diluted at 15 μg/mL in KB for 300 seconds to monitor association. Then, biosensors were transferred in KB for dissociation for 60 seconds. Binding profiles were then analyzed with ForteBio Data Analysis software.

| Binder | EC50 after cleavage IL-2, HEK Blue IL-2 αβγ reporter assay [1] [nM] | EC50 [2] [nM] | EC50 after cleavage IL-2, HEK Blue IL-2 βγ reporter assay [3] [nM] | Binding after cleavage (BLI) [4] [nm] |
| --- | --- | --- | --- | --- |
| Construct No 690 after cleavage by MMP-9 (antibody, MMP-9 digest of m24; the sample also holds the released IL-2Rα and IL-2; also called n690 after cleavage; not shown: remnant of CM1 and linker after MMP-9 cleavage) light: DIQMTQSPSSLSASVGDRVTITCNVDQVIANWLNWYQQKPGKAPKLLIYAASSLQSGVPSRFSGSGSGTDFTLTISSLQPEDFATYYCQQMHPRAPKQFGQGTKVEIKRTVAAPSVFIFPPSDEQLKSGTASVVCLLNNFYPREAKVQWKVDNALQSGNSQESVTEQDSKDSTYSLSSTLTLSKADYEKHKVYACEVTHQGLSSPVTKSFNRGEC heavy: not shown | 0.07 | 0.4 | 0.03 | – |
| Construct No 545 after cleavage by MMP-9 (antibody, MMP-9 digest of m19; the sample also holds the released IL-2, IL-2Rα and IL-2Rβ; also called n545 after cleavage; not shown: remnant of CM1 and linker after MMP-9 cleavage) light: DIQMTQSPSSLSASVGDRVTITCNVDQVIANWLNWYQQKPGKAPKLLIYAASSLQSGVPSRFSGSGSGTDFTLTISSLQPEDFATYYCQQMHPRAPKQFGQGTKVEIKRTVAAPSVFIFPPSDEQLKSGTASVVCLLNNFYPREAKVQWKVDNALQSGNSQESVTEQDSKDSTYSLSSTLTLSKADYEKHKVYACEVTHQGLSSPVTKSFNRGEC heavy: not shown | 0.01 | 0.6 | – | – |
| Construct No 281 after cleavage by MMP-9 (antibody, MMP-9 digest of m13; the sample also holds the released IL-2; also called n281 after cleavage; not shown: remnant of CM1 and linker after MMP-9 cleavage) light: DIQMTQSPSSLSASVGDRVTITCNVDQVIANWLNWYQQKPGKAPKLLIYAASSLQSGVPSRFSGSGSGTDFTLTISSLQPEDFATYYCQQMHPRAPKQFGQGTKVEIKRTVAAPSVFIFPPSDEQLKSGTASVVCLLNNFYPREAKVQWKVDNALQSGNSQESVTEQDSKDSTYSLSSTLTLSKADYEKHKVYACEVTHQGLSSPVTKSFNRGEC heavy: not shown | 0.01 | 0.9 | – | – |
| Construct No 1030 after cleavage by MMP-9 (antibody, MMP-9 digest of m37; the sample also holds the released IL-2 Q126T and IL-2Rα; also called n1030 after cleavage; not shown: remnant of CM1 and linker after MMP-9 cleavage) light: DIQMTQSPSSLSASVGDRVTITCNVDQVIANWLNWYQQKPGKAPKLLIYAASSLQSGVPSRFSGSGSGTDFTLTISSLQPEDFATYYCQQMHPRAPKQFGQGTKVEIKRTVAAPSVFIFPPSDEQLKSGTASVVCLLNNFYPREAKVQWKVDNALQSGNSQESVTEQDSKDSTYSLSSTLTLSKADYEKHKVYACEVTHQGLSSPVTKSFNRGEC heavy: not shown | 0.23 | 0.8 | – | 1.3 |

The remaining lines, values ahead:

| EC50 after cleavage IL-2, HEK Blue IL-2 αβγ reporter assay [1] [nM] | EC50 [2] [nM] | EC50 after cleavage IL-2, HEK Blue IL-2 βγ reporter assay [3] [nM] | Binding after cleavage (BLI) [4] [nm] | Binder |
| --- | --- | --- | --- | --- |
| 0.11 | 0.4 | 0.09 | – | Construct No 2 after cleavage by MMP-9 (antibody, MMP-9 digest of m3; the sample also holds the released IL-2; also called n2 after cleavage; not shown: remnant of CM1 and linker after MMP-9 cleavage) light: DIQMTQSPSSLSASVGDRVTITCNVDQVIANWLNWYQQKPGKAPKLLIYAASSLQSGVPSRFSGSGSGTDFTLTISSLQPEDFATYYCQQMHPRAPKQFGQGTKVEIKRTVAAPSVFIFPPSDEQLKSGTASVVCLLNNFYPREAKVQWKVDNALQSGNSQESVTEQDSKDSTYSLSSTLTLSKADYEKHKVYACEVTHQGLSSPVTKSFNRGEC heavy: not shown |
| 0.01 | 1.3 | – | 1.3 | Construct No 1021 after cleavage by MMP-9 (antibody, MMP-9 digest of m35; the sample also holds the released IL-2Rα and IL-2; also called n1021 after cleavage; not shown: remnant of CM1 and linker after MMP-9 cleavage) light: DIQMTQSPSSLSASVGDRVTITCNVDQVIANWLNWYQQKPGKAPKLLIYAASSLQSGVPSRFSGSGSGTDFTLTISSLQPEDFATYYCQQMHPRAPKQFGQGTKVEIKRTVAAPSVFIFPPSDEQLKSGTASVVCLLNNFYPREAKVQWKVDNALQSGNSQESVTEQDSKDSTYSLSSTLTLSKADYEKHKVYACEVTHQGLSSPVTKSFNRGEC heavy: not shown |
